# Data: patent publication US20230242640A1 (OSE IMMUNOTHERAPEUTICS, published 2023)
# Legend:
# [1] = biological target: T1, protein SIRPb-His (human, UniProt Q5TFQ8 30-371); test: ELISA on coated SIRPb-His
# T1 construct: The methods give no supplier for SIRPb-His; also called hSIRPb-his
# Description: FIG. 2. Binding on SIRPg, SIRPa and SIRPb ELISA assay (protein SIRPa/b/g-His coated and anti-human peroxidase detection). Binding analysis of antibodies A1, A5 and A8, and prior art antibody Kwar23.
# [2] = biological target: T2, recombinant hSIRPg-His (Sino Biologicals reference 11828-H08H) (human, UniProt Q9P1W8 29-360); test: ELISA on coated SIRPg-His
# T2 construct: Bought protein; also called protein SIRPg-His; SIRP-gamma
# Procedure: For activity ELISA assay, recombinant hSIRPg (Sino Biologicals, Beijing, China; reference 11828-H08H) or hSIRPa (Sino Biologicals, Beijing, China; reference 11612-H08H) was immobilized on plastic at 1 µg/ml (hSIRPg) or 0.5 µg/ml (hSIRPa) in carbonate buffer (pH9.2) and purified antibody were added to measure binding.
# T2 sequence (Q9P1W8 29-360): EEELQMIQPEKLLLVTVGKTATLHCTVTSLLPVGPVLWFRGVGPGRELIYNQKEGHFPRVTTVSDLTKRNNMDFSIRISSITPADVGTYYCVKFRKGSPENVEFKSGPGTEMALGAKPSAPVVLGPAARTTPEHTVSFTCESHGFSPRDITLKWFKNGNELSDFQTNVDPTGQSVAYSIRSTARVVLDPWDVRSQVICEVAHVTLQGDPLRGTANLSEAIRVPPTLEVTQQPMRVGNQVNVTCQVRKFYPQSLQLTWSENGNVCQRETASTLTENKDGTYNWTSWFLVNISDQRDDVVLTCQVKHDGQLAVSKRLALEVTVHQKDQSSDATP
# T1 sequence (Q5TFQ8 30-371): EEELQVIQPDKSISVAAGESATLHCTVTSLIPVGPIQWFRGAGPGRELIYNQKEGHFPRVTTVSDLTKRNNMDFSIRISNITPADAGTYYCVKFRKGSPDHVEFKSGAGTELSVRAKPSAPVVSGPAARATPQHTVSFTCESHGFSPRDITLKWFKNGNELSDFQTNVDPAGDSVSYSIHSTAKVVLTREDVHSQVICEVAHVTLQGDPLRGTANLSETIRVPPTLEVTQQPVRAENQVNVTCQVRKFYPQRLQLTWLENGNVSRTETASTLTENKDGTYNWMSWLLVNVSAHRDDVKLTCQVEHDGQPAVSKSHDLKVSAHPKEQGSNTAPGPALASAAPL
binding result [1],binding result [2],Binder
no binding,binds,"anti-SIRPg antibody A1 (antibody, human IgG4 S228P, kappa, V domains shown, human IgG4 S228P, kappa constant; also called VHA1-hFcG4 + VL-CLkappa) VH: EVQLVESGGGVVRPGGSLRLSCAASGFTFDDYGMSWVRQAPGKGLEWVSGINWNGGSTGYADSVKGRFTISRDNAKNSLYLQMNSLRAEDTAVYYCARWIAKVWGQGTLVTVSR VL: SSELTQDPAVSVALGQTVRITCQGDSLRSYYASWYQQKPGQAPVLVIYGKNNRPSGIPDRFSGSSSGNTASLTITGAQAEDEADYYCNSRDSSGNHVVFGGGTKLTVLR"
no binding,binds,"anti-SIRPg antibody A8 (antibody, human IgG4 S228P, kappa, V domains shown, human IgG4 S228P, kappa constant; also called VHA8-hFcG4 + VL-CLkappa) VH: not shown VL: SSELTQDPAVSVALGQTVRITCQGDSLRSYYASWYQQKPGQAPVLVIYGKNNRPSGIPDRFSGSSSGNTASLTITGAQAEDEADYYCNSRDSSGNHVVFGGGTKLTVLR"
no binding,binds,"anti-SIRPg antibody A5 (antibody, human IgG4 S228P, kappa, V domains shown, human IgG4 S228P, kappa constant; also called VHA5-hFcG4 + VL-CLkappa) VH: EVQLVESGGGVVRPGGSLRLSCAASGFTFDDYGMSWVRQAPGKGLEWVSGINWNGGSTGYADSVKGRFTISRDNAKNSLYLQMNSLRAEDTAVYYCARQMVKLWGQGTLVTVSR VL: SSELTQDPAVSVALGQTVRITCQGDSLRSYYASWYQQKPGQAPVLVIYGKNNRPSGIPDRFSGSSSGNTASLTITGAQAEDEADYYCNSRDSSGNHVVFGGGTKLTVLR"
